Reference: article PMC7755903 (Nature Communications, 2020)
Substitutions are numbered along the chain they refer to. Numbers in names are those of the source. Where “and” joins values, the source holds several entries; their conditions need not be identical. Identical values can stand only once.

B1: E104.v2 IgG1 hinge variant G1-TH (antibody, V domains shown)
VH: EVQLVESGPGLVKPSETLSLTCTVSRFSLIGYAITWIRQPPGKGLEWIGGISSAATTFYSSWAKSRVTISRDTSKNQVSLKLSSVTAADTAVYYCARDPRGYGAALDRLDLWGQGTLVTVSS
VL: DIQMTQSPSSLSASVGDRVTITCQSIKSVYNNRLGWYQQKPGKAPKLLIYETSILTSGVPSRFSGSGSGTDFTLTISSLQPEDFATYYCAGGFDRSGDTTFGQGTKVEIK
B2: E104.v2 IgG1 hinge variant G1-KTH (antibody, V domains shown)
VH: B1 VH
VL: B1 VL
notes: humanized E104.v2 VH: as the VH of Sm2 (E104.v1, PDB 6VVU heavy chain) with V71R and F78V (Kabat numbering); human IgG1 heavy chain constant region, the CH1 domain up to the upper hinge; human IgG1 heavy chain constant region after the upper hinge (core and lower hinge, CH2, CH3); IgG1 with shortened upper hinge; copies: 2 + 2
B3: humanized E104.v1 IgG1 (antibody, V domains shown)
VH: B1 VH with R71V, V78F
VL: B1 VL
B4: E104.v2 IgG1 hinge variant G1 + G (antibody, V domains shown)
VH: B1 VH
VL: B1 VL
notes: variable domain of the heavy chain as in m6 (PDB 6VVU, Fab heavy chain) with V71R and F78V (Kabat numbering); human IgG1 heavy chain constant region before the upper hinge (CH1); upper hinge of the variant; human IgG1 heavy chain constant region after the upper hinge (core hinge from C226, CH2, CH3); as the light chain of m6 (PDB 6VVU, Fab light chain); IgG1 with an extended upper hinge; source: …
B5: E104.v2 IgG1 hinge variant G1-TH (antibody, V domains shown)
VH: B1 VH
VL: B1 VL
notes: variable domain of the heavy chain as in m6 (PDB 6VVU, Fab heavy chain) with V71R and F78V (Kabat numbering); human IgG1 heavy chain constant region before the upper hinge (CH1); upper hinge of the variant; human IgG1 heavy chain constant region after the upper hinge (core hinge from C226, CH2, CH3); as the light chain of m6 (PDB 6VVU, Fab light chain); IgG1 with a shortened upper hinge; source: …
B6: humanized E104.v2 IgG1 (antibody, V domains shown)
VH: B1 VH
VL: B1 VL
notes: variable domain of the heavy chain as in m6 (PDB 6VVU, Fab heavy chain) with V71R and F78V (Kabat numbering); human IgG1 heavy chain constant region; as the light chain of m6 (PDB 6VVU, Fab light chain); IgG1; also called IgG1.v2; WT IgG1 hinge; source: 293 cells, transient transfection, purified (MabSelect SuRe, SEC); copies: 2 + 2
B7: E104.v2 IgG1 hinge variant G1 + G (antibody, V domains shown)
VH: B1 VH
VL: B1 VL
notes: humanized E104.v2 VH: as the VH of Sm2 (E104.v1, PDB 6VVU heavy chain) with V71R and F78V (Kabat numbering); human IgG1 heavy chain constant region, the CH1 domain up to the upper hinge; human IgG1 heavy chain constant region after the upper hinge (core and lower hinge, CH2, CH3); IgG1 with extended upper hinge; copies: 2 + 2
B8: E104.v2 IgG1 hinge variant G1-TH (antibody, V domains shown)
VH: B1 VH
VL: B1 VL
notes: as for B2
B9: humanized E104.v2 IgG4 (antibody, V domains shown)
VH: B1 VH
VL: B1 VL
notes: humanized E104.v2 VH: as the VH of Sm2 (E104.v1, PDB 6VVU heavy chain) with V71R and F78V (Kabat numbering); human IgG4 heavy chain constant region, the CH1 domain up to the upper hinge; upper hinge of human IgG4; human IgG4 heavy chain constant region after the upper hinge (core and lower hinge, CH2, CH3); IgG4 isotype version of E104.v2; copies: 2 + 2
B10: E104.v2 Fab (Fab, V domains shown)
VH: B1 VH
VL: B1 VL
notes: as the heavy chain of m6 (PDB 6VVU, Fab heavy chain) with the two framework changes V71R and F78V (Kabat numbering); as the light chain of m6 (PDB 6VVU, Fab light chain); No structure of v2 was obtained; it differs from v1 only at heavy chain framework positions 71 and 78; also called Fab E104.v2; source: E. coli, purified (Protein G, SP Sepharose, S75 SEC)
B11: E104.v2 IgG1 hinge variant G1.G5 (antibody, V domains shown)
VH: B1 VH
VL: B1 VL
notes: variable domain of the heavy chain as in m6 (PDB 6VVU, Fab heavy chain) with V71R and F78V (Kabat numbering); human IgG1 heavy chain constant region before the upper hinge (CH1); upper hinge of the variant; human IgG1 heavy chain constant region after the upper hinge (core hinge from C226, CH2, CH3); as the light chain of m6 (PDB 6VVU, Fab light chain); IgG1 with five glycines in the upper hinge; …
B12: humanized E104.v1 IgG1 (antibody, V domains shown)
VH: B1 VH with R71V, V78F
VL: B1 VL
notes: variable domain of the heavy chain as in m6 (PDB 6VVU, Fab heavy chain); human IgG1 heavy chain constant region; as the light chain of m6 (PDB 6VVU, Fab light chain); IgG1; also called IgG1.v1; source: 293 cells, transient transfection, purified (MabSelect SuRe, SEC); copies: 2 + 2
B13: E104.v2 IgG1 hinge variant G1 + GGS (antibody, V domains shown)
VH: B1 VH
VL: B1 VL
notes: as for B4
B14: E104.v2 IgG1 hinge variant G1-H (antibody, V domains shown)
VH: B1 VH
VL: B1 VL
notes: as for B2
B15: E104.v2 IgG1 hinge variant G1.G5 (antibody, V domains shown)
VH: B1 VH
VL: B1 VL
B16: humanized E104.v1 IgG1 (antibody, V domains shown)
VH: B1 VH with R71V, V78F
VL: B1 VL
notes: humanized E104.v1 VH (rabbit E104 CDRs on the human VHIV consensus framework); Kabat numbering; human IgG1 heavy chain constant region, the CH1 domain up to the upper hinge; upper hinge of human IgG1, wild type; human IgG1 heavy chain constant region after the upper hinge (core and lower hinge, CH2, CH3); humanized E104 light chain (rabbit E104 CDRs on the human VLKI consensus framework); IgG1; …

How the values were obtained:
Conditions in all cases: both partners purified
[1] = molecular target: T1, human βI-tryptase monomer (Homo sapiens, UniProt Q15661); assay: SPR; Biacore T200; anti-tryptase IgG variant captured on a CM5 chip with anti-human IgG (Fc) antibody; threefold dilutions of human βI-tryptase monomer injected at 30 µL/min, 25 °C, 3-min association, 10-min dissociation; 1:1 binding model; representative single sensorgram sets
T1 construct: mature wild-type human βI-tryptase, Uniprot Q15661, Ile31-Pro275 (Ile16-Pro246 chymotrypsinogen numbering); also called monomeric βI-tryptase; β1-tryptase; source: Trichoplusia ni cells (baculovirus), secreted, purified (Ni-NTA, S200 SEC)
T1 sequence (Q15661 31-275): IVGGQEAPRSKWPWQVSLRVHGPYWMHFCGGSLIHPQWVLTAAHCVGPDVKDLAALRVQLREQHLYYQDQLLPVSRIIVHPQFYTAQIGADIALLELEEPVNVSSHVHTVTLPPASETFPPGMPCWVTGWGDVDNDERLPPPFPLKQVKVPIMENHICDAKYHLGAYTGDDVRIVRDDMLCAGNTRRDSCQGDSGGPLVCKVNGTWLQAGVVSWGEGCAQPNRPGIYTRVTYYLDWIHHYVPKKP

[2] = molecular target: T2, human βI-tryptase monomer (Homo sapiens, UniProt Q15661); assay: SPR; Biacore T200; antibody captured on a CM5 chip by immobilised mouse anti-human IgG (Fc); threefold dilutions of βI-tryptase monomer injected at 30 µL/min, 25 °C, 3-min association, 10-min dissociation; 1:1 Langmuir fit; n = 2
T2 construct: mature wild-type human βI-tryptase, Uniprot Q15661, Ile31-Pro275 (Ile16-Pro246 in chymotrypsinogen numbering); The SPR methods say only 'human βI-tryptase monomer'; The methods describe the monomeric form as the zymogen, which still carries the N-terminal His6 tag and enterokinase site before Ile16; also called monomeric βI-tryptase; β-tryptase; source: Trichoplusia ni cells (baculovirus, …)
T2 sequence (Q15661 31-275): as above

[3] = molecular target: T3, human βI-tryptase monomer (Homo sapiens, UniProt Q15661); assay: SPR; Biacore T200; E104 IgG variants captured on immobilised mouse anti-human IgG (Fc) antibody on CM5 chips; threefold dilutions of human βI-tryptase monomer injected at 30 µL/min, 25 °C; 1:1 Langmuir model; n = 2
T3 construct: mature human βI-tryptase, Ile31-Pro275 of Uniprot Q15661 (Ile16-Pro246 in chymotrypsinogen numbering); The monomer used in SPR and HDX-MS; also called monomeric βI-tryptase; monomeric β-tryptase
T3 sequence (Q15661 31-275): as above

[4] = molecular target: T4, βI-tryptase tetramer mutant I99C (human, engineered disulfide bond in the large interface (C99)); assay: SEC; without heparin; tetrameric βI-tryptase (WT, Y75C or I99C) or zymogen monomer mixed with a twofold molar excess of Fab, 15 min at 25 °C; S200GL column in 10 mM MOPS pH 6.8, 2 M NaCl; fractions checked by SDS-PAGE
T4 construct: mature human βI-tryptase, Ile31-Pro275 of Uniprot Q15661 (Ile16-Pro246 in chymotrypsinogen numbering); numbers count on: chymotrypsinogen numbering; Loaded as a tetramer; with E104.v2 Fab it runs as a complex of the disulfide-linked dimer; also called disulfide-locked large interface mutant; not shown: His6, N-terminal, cleaved
T4 sequence (chain, as listed by the source I99C I99C): as the sequence (Q15661 31-275) above, with I88C counted along it

Binder	Kd [2]	Kd [3] [nM]	other results
B1			Kd [1]: 0.56 nM
B2	0.522 nM and 0.401 nM		
B3			Kd [1]: 0.543 nM
B4		0.5 ± 0.01	
B5		0.5 ± 0.07	
B6		0.6 ± 0.01	
B7	0.538 nM and 0.521 nM		
B8	0.56 nM and 0.471 nM		
B9	0.745 nM and 0.689 nM		
B10			stoichiometry N [4]: 2 Fab per disulfide-linked dimer
B11		0.6 ± 0.1	
B12		0.5 ± 0.02	
B13		0.5 ± 0.05	
B14	0.68 nM and 0.494 nM		
B15			Kd [1]: 0.643 nM
B16	0.543 nM and 0.521 nM		
